Source: patent publication US20190144550A1 (Pfizer, published 2019)

What was measured:
[1] = biological target: T1, 8-histidine tagged recombinant wild-type protein EGFRwt (UniProt P00533 25-645, limits assumed); assay: SPR, captured by anti-human Fc
T1 construct: not shown: 8-histidine tag

[2] = biological target: T2, Monomeric 8-histidine tagged human EGFRvIII extracellular domain (human, UniProt P00533 298-645); assay: SPR, captured by anti-human Fc, 25 C
T2 construct: Analyte in all SPR assays; not shown: 8-histidine tag
Excerpt: (§1) Anti-EGFRvII mouse (m) antibody, m62G7, generated from hybridomas was sequenced and subcloned into suitable vectors for expression as murine-human chimeric antibodies. The CDRs of mouse antibody m62G7 were grafted onto human framework and expressed as human IgG1 recombinant antibody, h62G7. Affinity variants of h62G7 were made by introducing mutations in the CDRs of the heavy and light chains. The affinities of recombinant anti-EGFRvIII chimeric antibody m62G7 and humanized h62G7 antibodies were measured on a surface plasmon resonance Biacore™ T200 biosensor equipped with a research-grade anti-human Fc coupled CM4 sensor chip (GE Healthcare Inc., Piscataway, N.J.). Anti-EGFRvII antibodies were then captured by anti-human Fc. Monomeric 8-histidine tagged human EGFRvIII extracellular domain was then injected as the analyte at 10-fold dilution series with top concentration at 1000 nM. Affinity of anti-EGFRvIII antibodies towards human EGFRvIII was measured at both 25° C. and 37° C.

[3] = biological target: T2, Monomeric 8-histidine tagged human …; assay: SPR, captured by anti-human Fc, 37 C
Excerpt: as §1

[4] = biological target: T2, Monomeric 8-histidine tagged human …; assay: SPR, captured by anti-human Fc, 25 C; 25 C

- binding result [1]: no binding (tested: 1000 nM)
- Kd [2]: 59.9 nM
- kon [2]: 200000 M⁻¹ s⁻¹
- Kd [3]: 186 nM
- koff [3]: 0.069 s⁻¹
- kon [3]: 370000 M⁻¹ s⁻¹
- koff [4]: 0.012 s⁻¹
B1: h62G7-EQ/L1-DV (antibody, V domains shown)
VH: QVQLVQSGAEVKKPGASVKVSCKASGYTFTDYTLHWVRQAPGQGLEWMGGIWPITGGTTYNQKFKGRVTMTRDTSTSTVYMELSSLRSEDTAVYYCARGEAQGSWGQGTLVTVSS
VL: DVVMTQSPLSLPVTLGQPASISCKSSQSLLYSNDKTYTNWFQQRPGQSPRRLIYEVSKLDVGVPDRFSGSGSGTDFTLKISRVEAEDVGVYYCGQDTHFPLTFGGGTKVEIK
notes: Human IgG1
